Consider four molecules from US20240239894A1 (AstraZeneca / MedImmune, published 2024).

The target of assay [1] is T1, huB7-H1 (human, UniProt Q9NZQ7 19-238).
T1 construct: Sourced antigen; construct not described; also called Human B7-H1
Nature of the assay: ELISA.

The target in assay [2] is T2, huBTN1A1 (human, UniProt Q13410 27-242, limits assumed).
T2 construct: Sourced antigen; construct not described; also called Human BTN1A1
T2 sequence (looked up): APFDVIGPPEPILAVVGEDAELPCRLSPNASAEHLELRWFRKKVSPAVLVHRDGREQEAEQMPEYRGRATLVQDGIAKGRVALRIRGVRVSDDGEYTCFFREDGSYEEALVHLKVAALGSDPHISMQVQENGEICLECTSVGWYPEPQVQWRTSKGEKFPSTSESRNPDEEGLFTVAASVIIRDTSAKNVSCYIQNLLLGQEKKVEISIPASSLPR
The experiment in a line: ELISA. In general terms: In an ELISA, binding on a coated surface is turned into a signal by an enzyme label.

For assay [3], the target named is T3, huHHLA2 (human, UniProt Q9UM44 23-344).
T3 construct: Sourced antigen; construct not described; also called Human HHLA2
T3 sequence (looked up): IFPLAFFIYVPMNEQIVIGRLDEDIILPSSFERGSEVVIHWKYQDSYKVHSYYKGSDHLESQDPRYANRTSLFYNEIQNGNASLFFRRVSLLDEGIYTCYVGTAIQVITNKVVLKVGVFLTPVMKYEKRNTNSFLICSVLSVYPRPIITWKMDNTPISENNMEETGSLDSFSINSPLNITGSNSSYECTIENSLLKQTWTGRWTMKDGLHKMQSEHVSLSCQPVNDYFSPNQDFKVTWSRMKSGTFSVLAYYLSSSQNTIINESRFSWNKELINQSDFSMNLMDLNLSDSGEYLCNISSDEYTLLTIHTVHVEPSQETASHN
Nature of the assay: ELISA.

Assay [4] concerns the target T4, huBTN2A1 (human, UniProt Q7KYR7 29-248, limits assumed).
T4 construct: Sourced antigen; construct not described; also called Human BTN2A1
T4 sequence (looked up): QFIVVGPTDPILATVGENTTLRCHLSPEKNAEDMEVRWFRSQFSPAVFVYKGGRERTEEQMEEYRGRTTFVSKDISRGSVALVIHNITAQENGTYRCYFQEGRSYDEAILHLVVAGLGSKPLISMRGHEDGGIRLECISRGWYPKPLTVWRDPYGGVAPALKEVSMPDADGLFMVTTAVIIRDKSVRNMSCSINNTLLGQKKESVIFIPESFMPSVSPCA
The experiment in a line: ELISA.

In assay [5] the target is T5, huBTNL3 (human, UniProt Q6UXE8 18-237, limits assumed).
T5 construct: Sourced antigen; construct not described; also called Human BTNL3
T5 sequence (looked up): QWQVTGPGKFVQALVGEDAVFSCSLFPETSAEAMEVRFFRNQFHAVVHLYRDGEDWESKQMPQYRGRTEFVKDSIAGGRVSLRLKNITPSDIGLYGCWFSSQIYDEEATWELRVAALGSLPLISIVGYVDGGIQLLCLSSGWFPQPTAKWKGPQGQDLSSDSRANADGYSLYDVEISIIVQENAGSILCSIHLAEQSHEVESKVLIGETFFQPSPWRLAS
The experiment in a line: ELISA.

The target in assay [6] is T6, human B7-H4 on cells (human, UniProt Q7Z7D3 25-282).
T6 sequence: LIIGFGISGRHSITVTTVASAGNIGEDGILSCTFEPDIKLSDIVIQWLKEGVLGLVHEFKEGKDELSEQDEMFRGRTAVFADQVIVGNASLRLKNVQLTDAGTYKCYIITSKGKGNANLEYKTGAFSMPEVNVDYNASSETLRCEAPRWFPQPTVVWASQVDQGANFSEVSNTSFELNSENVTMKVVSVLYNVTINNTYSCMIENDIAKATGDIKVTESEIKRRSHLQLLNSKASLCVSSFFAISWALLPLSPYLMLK
Nature of the assay: cell-based or functional assay.

In assay [7] the target is T7, Murine B7-H4-Fc (Mouse B7H4 ECD, Fc_6His) (mouse, UniProt Q7TSP5 25-257).
T7 construct: extracellular domain; also called mouse B7-H4-Fc; FcHis6 tagged murine B7-H4
T7 sequence (Q7TSP5 whole entry, looked up): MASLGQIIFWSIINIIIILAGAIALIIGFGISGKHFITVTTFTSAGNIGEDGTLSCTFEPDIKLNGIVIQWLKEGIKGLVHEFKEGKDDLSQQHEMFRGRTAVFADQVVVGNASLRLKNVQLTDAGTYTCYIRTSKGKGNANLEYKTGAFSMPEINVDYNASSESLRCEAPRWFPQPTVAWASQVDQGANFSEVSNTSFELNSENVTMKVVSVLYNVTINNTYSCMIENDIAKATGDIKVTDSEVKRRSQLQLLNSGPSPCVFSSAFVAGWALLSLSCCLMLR
Nature of the assay: HTRF binding, human IgG1-TM. (In general: Time-resolved FRET reads energy transfer from a long-lived donor to a nearby acceptor.)

Assay [8] has as its target T8, Human B7-H4 ECD-Flag-His10 (monomeric) (human, UniProt Q7Z7D3 25-259).
T8 construct: Minimally biotinylated for KinExA; also called hB7H4-ECD-Flag-His10; B7-H4-FLAG
T8 sequence: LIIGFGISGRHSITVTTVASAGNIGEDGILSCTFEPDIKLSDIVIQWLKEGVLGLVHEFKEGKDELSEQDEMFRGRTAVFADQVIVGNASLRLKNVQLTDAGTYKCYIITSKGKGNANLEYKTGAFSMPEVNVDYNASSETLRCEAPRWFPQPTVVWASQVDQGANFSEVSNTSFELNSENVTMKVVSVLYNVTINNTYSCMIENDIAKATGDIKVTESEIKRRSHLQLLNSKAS
Nature of the assay: Octet BLI, hIgG1-TM on Protein G (n = 4-7).

Assay [9] concerns the target T9, Murine B7-H4 ECD-Flag-His10 (monomeric) (mouse, UniProt Q7TSP5 25-257).
T9 construct: extracellular domain; also called FlagHis10 murine B7-H4
T9 sequence (looked up): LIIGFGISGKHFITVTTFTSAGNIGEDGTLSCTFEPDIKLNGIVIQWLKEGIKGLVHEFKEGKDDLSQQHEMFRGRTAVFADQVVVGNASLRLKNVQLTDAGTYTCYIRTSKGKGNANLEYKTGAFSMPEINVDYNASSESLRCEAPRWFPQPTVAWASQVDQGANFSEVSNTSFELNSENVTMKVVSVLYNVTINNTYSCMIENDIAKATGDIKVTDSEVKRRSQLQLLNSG
Nature of the assay: Octet BLI, hIgG1-TM on Protein G (n = 4-7).

The target of assay [10] is T10, Human B7H4 ECD (SV), splice variant, 10His_FLAG (human).
T10 construct: also called B7-H4-SV
Nature of the assay: Octet BLI, hIgG1-TM on Protein G (n = 4-7). (In general: BLI is a label-free optical method that tracks binding on a fibre tip over time.)

T1 sequence (Q9NZQ7 19-238 limits assumed): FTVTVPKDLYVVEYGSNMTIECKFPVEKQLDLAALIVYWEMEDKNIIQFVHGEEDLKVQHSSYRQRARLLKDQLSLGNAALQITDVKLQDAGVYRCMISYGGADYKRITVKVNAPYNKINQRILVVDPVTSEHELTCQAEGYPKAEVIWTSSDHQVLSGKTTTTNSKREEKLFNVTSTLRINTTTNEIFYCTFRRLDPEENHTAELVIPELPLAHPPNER

B1: ZY0EOB-F05 human IgG1-TM (antibody, V domains shown)
VH: QVQLQESGPGLVKPSQTLSLTCTVSDGSISSGGYYWSWIRQHPGKGLEWIGNIYYSGSTYYNPSLKSRVTISVDTSKNQFSLKLNSVTAADTAVYYCATEKALATVTPSGYENYYTVDVWGQGTTVTVSS
VL: DIQLTQSPSFLSASVGDRVTITCWASQGISSYLAWYQQKPGKAPKLLIYAASTLQSGVPSRFSGSGSGTEFTLTISSLQPEDFATYYCQHLNSYPLTFGGGTKVEIK
The EC50 is the concentration needed to bring the measured effect to its halfway point. Read a low EC50 as an effect from little substance. By Kd is commonly meant the constant that tells how readily two partners part at equilibrium. The term koff denotes the first-order rate constant of dissociation. As a reminder, the kon is the rate constant with which the complex forms. Lower therefore signals slower complex formation. For the molecule B1, the binding result in [1], in assay [2], in assay [3], in assay [4] and in assay [5] was “no binding” in each case. The “ZAP % Viability, OVCAR4” value in assay [6] turned out to be 67%. In addition, the “ZAP % Viability, SKBR3” value in [6] worked out at 84%. The molecule also had an EC50 in assay [7] of 0.00019 µM. Moreover, the Max in assay [7] was found to be 1340. In addition, the values for the Kd in assay [8], in assay [9] and in assay [10] were 0.0134 µM, 0.025 µM and 0.174 µM, respectively. In addition, the koff in assay [8] was 0.000355 s⁻¹; in assay [9] it was 0.000476 s⁻¹; in assay [10], 0.000584 s⁻¹. The kon in assay [8] turned out to be 26500 M⁻¹ s⁻¹; in [9] it was 18700 M⁻¹ s⁻¹; in [10], 3350 M⁻¹ s⁻¹.

B2: ZY0EP0-C07 human IgG1-TM (antibody, V domains shown)
VH: QVQLVESGGVLVKPGGSLRLSCAASGFTLSDYYMSWIRQAPGMGLEWVSYISSSGSTIYYTDSVKGRFTISRDSAKNSLYLQMNSLRAEDTAVYYCARDGVGFDYWGQGTLVTVSS
VL: EIVLTQSPGTLSLFPGERATLSCRASQSVSSSYLAWYQQKPGQSPRLLIYAASSRATGIPDRFSGSGSGTDFTLTISRLEPEDFAVYYCQQYGSSPLYTFGQGTKLEIK
notes: also called ZY0EPO-C07
Take B2: the binding result in assay [1] is on record as “no binding”. Also, the binding result in assay [2] was “no binding”. Moreover, in assay [3], the binding result is “no binding”. Also, the binding result in [4] is “no binding”. Further, in assay [5], the binding result is reported as “no binding”. Also, in assay [6], the “ZAP % Viability, OVCAR4” value was 57%; the “ZAP % Viability, SKBR3” value is 72%; the “ZAP IC50 (M), OVCAR4” value was 1e-08 M; the “ZAP IC50 (M), SKBR3” value is 4e-09 M. Further, in assay [7], a half-maximal effect (EC50) was put at 0.0002 µM and the Max is 1250. In assay [8], this molecule gave a Kd of 0.0094 µM, a koff of 0.000397 s⁻¹ and a kon of 41600 M⁻¹ s⁻¹. Further, in [9], the Kd was found to be 0.011 µM, the koff came to 0.000524 s⁻¹ and the kon was 43000 M⁻¹ s⁻¹.

B3: ZY0EQD-E02 human IgG1-TM (antibody, V domains shown)
VH: QVQLQQWGAGLLKPSETLSLTCAVYGGSFSGYYWNWIRQPPGKGLEWIGEINHSGSTSYNPSLKSRVTISVDTSKNQFSLKLSSVTAADTAVYYCARVLYNWNVDSWGQGTLVTVSS
VL: DIQMTQSPSSLSASVGDRVTITCRASQDIRNDVGWYQQKPGKAPKRLIYAASRLQSGVPSRFSGSGSGTEFTLTISSLQPEDFATYYCLQHNSYPRTFGQGTKVEIK
In the case of B3, the binding result in assay [1], in [2], in assay [3], in assay [4] and in [5] was “no binding” each time. In assay [6], the “ZAP % Viability, OVCAR4” value was found to be 40%. In addition, the “ZAP % Viability, SKBR3” value in assay [6] came to 48%. Besides, the “ZAP IC50 (M), OVCAR4” value in assay [6] is 2e-08 M. In addition, the “ZAP IC50 (M), SKBR3” value in assay [6] was determined as 1e-08 M. In assay [7], this molecule showed an EC50 of 0.00144 µM. The Max in [7] turned out to be 224. The Kd was determined as 0.0144 µM in [8], 0.621 µM in assay [9] and 0.801 µM in assay [10]. The koff in assay [8] was 0.00278 s⁻¹; in [9], 0.126 s⁻¹; in assay [10], 0.00269 s⁻¹. For the same molecule, the kon came to 193000 M⁻¹ s⁻¹ in assay [8], 203000 M⁻¹ s⁻¹ in [9] and 3360 M⁻¹ s⁻¹ in [10].

B4: ZY0EPQ-E02 human IgG1-TM (antibody, V domains shown)
VH: QVQLQQWGAGLLKPSETLSLTCAVYGGSFSGYYWNWIRQPPGKGLEWIGEINHSGSTNYNPSLKSRVTILVDTSKNQFSLKLSSVTAADTAVYYCARNLYNWNLDSWGQGTLVTVSS
VL: DIQMTQSPSSLSASVGDRVTITCRASQGIRNDLGWYQQKPGRAPKRLIYVASSLQSGVPSRFSGSGSGTEFTLTISSLQPEDFATYYCLQHNSYPRTFGQGTKVEIK
Take B4: in [1], the binding result is “no binding”. In assay [2], the binding result is reported as “no binding”. Further, the binding result in assay [3] was “no binding”. In assay [4], the binding result was “no binding”. Besides, the binding result in assay [5] was “no binding”. Moreover, in [6], the “ZAP % Viability, OVCAR4” value came to 46%; the “ZAP % Viability, SKBR3” value was 65%; the “ZAP IC50 (M), OVCAR4” value came out at 2e-08 M; the “ZAP IC50 (M), SKBR3” value was determined as 4e-09 M. In addition, in assay [7], the response was half-maximal at 0.00176 µM (EC50) and the Max came out at 256. In [8], the Kd was found to be 0.0257 µM, the koff was determined as 0.00182 s⁻¹ and the kon stood at 70900 M⁻¹ s⁻¹. In [9], the affinity, expressed as Kd, was 0.396 µM; the koff was 0.0304 s⁻¹; the kon turned out to be 76700 M⁻¹ s⁻¹. Besides, in [10], the Kd came out at 1.66 µM, the koff came out at 0.00229 s⁻¹ and the kon was 1380 M⁻¹ s⁻¹.
